{"source": "IntAct's records for PubMed 12852788", "parents": {"B1": {"name": "Lymphocyte antigen 6 complex locus protein G6f (Homo sapiens), Q5SQ64 (parent)", "chain": "MAVLFLLLFLCGTPQAADNMQAIYVALGEAVELPCPSPPTLHGDEHLSWFCSPAAGSFTTLVAQVQVGRPAPDPGKPGRESRLRLLGNYSLWLEGSKEEDAGRYWCAVLGQHHNYQNWRVYDVLVLKGSQLSARAADGSPCNVLLCSVVPSRRMDSVTWQEGKGPVRGRVQSFWGSEAALLLVCPGEGLSEPRSRRPRIIRCLMTHNKGVSFSLAASIDASPALCAPSTGWDMPWILMLLLTMGQGVVILALSIVLWRQRVRGAPGRDASIPQFKPEIQVYENIHLARLGPPAHKPR"}}, "data": [{"variants_of": "B1", "details": "with grb7_human GRB7, Q14451", "values": [{"variant": "MAVLFLLLFLCGTPQAADNMQAIYVALGEAVELPCPSPPTLHGDEHLSWFCSPAAGSFTTLVAQVQVGRPAPDPGKPGRESRLRLLGNYSLWLEGSKEEDAGRYWCAVLGQHHNYQNWRVYDVLVLKGSQLSARAADGSPCNVLLCSVVPSRRMDSVTWQEGKGPVRGRVQSFWGSEAALLLVCPGEGLSEPRSRRPRIIRCLMTHNKGVSFSLAASIDASPALCAPSTGWDMPWILMLLLTMGQGVVILALSIVLWRQRVRGAPGRDASIPQFKPEIQVFENIHLARLGPPAHKPR", "note": "[Y281F]", "effect of a mutation on the interaction": "disrupting interaction strength"}]}, {"variants_of": "B1", "details": "with grb2_human GRB2, P62993", "values": [{"variant": "MAVLFLLLFLCGTPQAADNMQAIYVALGEAVELPCPSPPTLHGDEHLSWFCSPAAGSFTTLVAQVQVGRPAPDPGKPGRESRLRLLGNYSLWLEGSKEEDAGRYWCAVLGQHHNYQNWRVYDVLVLKGSQLSARAADGSPCNVLLCSVVPSRRMDSVTWQEGKGPVRGRVQSFWGSEAALLLVCPGEGLSEPRSRRPRIIRCLMTHNKGVSFSLAASIDASPALCAPSTGWDMPWILMLLLTMGQGVVILALSIVLWRQRVRGAPGRDASIPQFKPEIQVFENIHLARLGPPAHKPR", "note": "[Y281F]", "effect of a mutation on the interaction": "disrupting interaction strength"}]}]}
